Patent US10919943B2, “Mutant proteins enabling agrochemical control of plant gene expression” (The Regents of the University of California, priority 2016, dated 2021)
Numbering of substitutions follows the chain as printed. Names may count otherwise.

T1: PYR1 (Arabidopsis thaliana, UniProt O49686)
T1 construct: expressed in transfected cells; host or cells: S. cerevisiae strain Y190
T1 sequence (O49686 1-191): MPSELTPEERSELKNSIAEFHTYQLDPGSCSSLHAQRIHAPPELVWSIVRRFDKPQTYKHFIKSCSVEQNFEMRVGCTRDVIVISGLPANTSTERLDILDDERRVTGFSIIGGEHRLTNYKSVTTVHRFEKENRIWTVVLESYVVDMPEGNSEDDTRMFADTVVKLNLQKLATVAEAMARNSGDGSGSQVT

B1: R389Q: HAB1 mutant (protein, UniProt Q9CAJ0 23-511, looked up, variant R389Q)
Protein phosphatase 2C 16: SPVEITQLKNVTDAADLLSDSENQSFCNGGTECTMEDVSELEEVGEQDLLKTLSDTRSGSSNVFDEDDVLSVVEDNSAVISEGLLVVDAGSELSLSNTAMEIDNGRVLATAIIVGESSIEQVPTAEVLIAGVNQDTNTSEVVIRLPDENSNHLVKGRSVYELDCIPLWGTVSIQGNRSEMEDAFAVSPHFLKLPIKMLMGDHEGMSPSLTHLTGHFFGVYDGHGGHKVADYCRDRLHFALAEEIERIKDELCKRNTGEGRQVQWDKVFTSCFLTVDGEIEGKIGRAVVGSSDKVLEAVASETVGSTAVVALVCSSHIVVSNCGDSRAVLFRGKEAMPLSVDHKPDREDEYARIENAGGKVIQWQGAQVFGVLAMSRSIGDRYLKPYVIPEPEVTFMPRSREDECLILASDGLWDVMNNQEVCEIARRRILMWHKKNGAPPLAERGKGIDPACQAAADYLSMLALQKGSKDNISIIVIDLKAQRKFKTRT
B2: R389R: HAB1, x printed at the wild-type residue; see doubts (protein, UniProt Q9CAJ0 23-511, looked up)
Protein phosphatase 2C 16: B1 Protein phosphatase 2C 16 with Q367R
B3: R389T: HAB1 mutant (protein, UniProt Q9CAJ0 23-511, looked up, variant R389T)
Protein phosphatase 2C 16: B1 Protein phosphatase 2C 16 with Q367T
B4: R389V: HAB1 mutant (protein, UniProt Q9CAJ0 23-511, looked up, variant R389V)
Protein phosphatase 2C 16: B1 Protein phosphatase 2C 16 with Q367V
B5: R389W: HAB1 mutant (protein, UniProt Q9CAJ0 23-511, looked up, variant R389W)
Protein phosphatase 2C 16: B1 Protein phosphatase 2C 16 with Q367W
B6: R389C: HAB1 mutant (protein, UniProt Q9CAJ0 23-511, looked up, variant R389C)
Protein phosphatase 2C 16: B1 Protein phosphatase 2C 16 with Q367C
B7: R389Y: HAB1 mutant (protein, UniProt Q9CAJ0 23-511, looked up, variant R389Y)
Protein phosphatase 2C 16: B1 Protein phosphatase 2C 16 with Q367Y
B8: R389D: HAB1 mutant (protein, UniProt Q9CAJ0 23-511, looked up, variant R389D)
Protein phosphatase 2C 16: B1 Protein phosphatase 2C 16 with Q367D
B9: R389E: HAB1 mutant (protein, UniProt Q9CAJ0 23-511, looked up, variant R389E)
Protein phosphatase 2C 16: B1 Protein phosphatase 2C 16 with Q367E
B10: R389F: HAB1 mutant (protein, UniProt Q9CAJ0 23-511, looked up, variant R389F)
Protein phosphatase 2C 16: B1 Protein phosphatase 2C 16 with Q367F
B11: R389G: HAB1 mutant (protein, UniProt Q9CAJ0 23-511, looked up, variant R389G)
Protein phosphatase 2C 16: B1 Protein phosphatase 2C 16 with Q367G
B12: R389H: HAB1 mutant (protein, UniProt Q9CAJ0 23-511, looked up, variant R389H)
Protein phosphatase 2C 16: B1 Protein phosphatase 2C 16 with Q367H
B13: R389I: HAB1 mutant (protein, UniProt Q9CAJ0 23-511, looked up, variant R389I)
Protein phosphatase 2C 16: B1 Protein phosphatase 2C 16 with Q367I
B14: R389K: HAB1 mutant (protein, UniProt Q9CAJ0 23-511, looked up, variant R389K)
Protein phosphatase 2C 16: B1 Protein phosphatase 2C 16 with Q367K
B15: F391P: HAB1 mutant (protein, UniProt Q9CAJ0 23-511, looked up, variant F391P)
Protein phosphatase 2C 16: B1 Protein phosphatase 2C 16 with Q367R, F369P
B16: F391D: HAB1 mutant (protein, UniProt Q9CAJ0 23-511, looked up, variant F391D)
Protein phosphatase 2C 16: B1 Protein phosphatase 2C 16 with Q367R, F369D
B17: F391E: HAB1 mutant (protein, UniProt Q9CAJ0 23-511, looked up, variant F391E)
Protein phosphatase 2C 16: B1 Protein phosphatase 2C 16 with Q367R, F369E
B18: G392A: HAB1 mutant (protein, UniProt Q9CAJ0 23-511, looked up, variant G392A)
Protein phosphatase 2C 16: B1 Protein phosphatase 2C 16 with Q367R, G370A
B19: G392L: HAB1 mutant (protein, UniProt Q9CAJ0 23-511, looked up, variant G392L)
Protein phosphatase 2C 16: B1 Protein phosphatase 2C 16 with Q367R, G370L
B20: G392M: HAB1 mutant (protein, UniProt Q9CAJ0 23-511, looked up, variant G392M)
Protein phosphatase 2C 16: B1 Protein phosphatase 2C 16 with Q367R, G370M
B21: G392N: HAB1 mutant (protein, UniProt Q9CAJ0 23-511, looked up, variant G392N)
Protein phosphatase 2C 16: B1 Protein phosphatase 2C 16 with Q367R, G370N
B22: G392P: HAB1 mutant (protein, UniProt Q9CAJ0 23-511, looked up, variant G392P)
Protein phosphatase 2C 16: B1 Protein phosphatase 2C 16 with Q367R, G370P
B23: G392Q: HAB1 mutant (protein, UniProt Q9CAJ0 23-511, looked up, variant G392Q)
Protein phosphatase 2C 16: B1 Protein phosphatase 2C 16 with Q367R, G370Q
B24: G392R: HAB1 mutant (protein, UniProt Q9CAJ0 23-511, looked up, variant G392R)
Protein phosphatase 2C 16: B1 Protein phosphatase 2C 16 with Q367R, G370R
B25: G392T: HAB1 mutant (protein, UniProt Q9CAJ0 23-511, looked up, variant G392T)
Protein phosphatase 2C 16: B1 Protein phosphatase 2C 16 with Q367R, G370T
B26: G392V: HAB1 mutant (protein, UniProt Q9CAJ0 23-511, looked up, variant G392V)
Protein phosphatase 2C 16: B1 Protein phosphatase 2C 16 with Q367R, G370V
B27: G392W: HAB1 mutant (protein, UniProt Q9CAJ0 23-511, looked up, variant G392W)
Protein phosphatase 2C 16: B1 Protein phosphatase 2C 16 with Q367R, G370W
B28: G392C: HAB1 mutant (protein, UniProt Q9CAJ0 23-511, looked up, variant G392C)
Protein phosphatase 2C 16: B1 Protein phosphatase 2C 16 with Q367R, G370C
B29: G392Y: HAB1 mutant (protein, UniProt Q9CAJ0 23-511, looked up, variant G392Y)
Protein phosphatase 2C 16: B1 Protein phosphatase 2C 16 with Q367R, G370Y
B30: G392D: HAB1 mutant (protein, UniProt Q9CAJ0 23-511, looked up, variant G392D)
Protein phosphatase 2C 16: B1 Protein phosphatase 2C 16 with Q367R, G370D
B31: G392E: HAB1 mutant (protein, UniProt Q9CAJ0 23-511, looked up, variant G392E)
Protein phosphatase 2C 16: B1 Protein phosphatase 2C 16 with Q367R, G370E
B32: G392F: HAB1 mutant (protein, UniProt Q9CAJ0 23-511, looked up, variant G392F)
Protein phosphatase 2C 16: B1 Protein phosphatase 2C 16 with Q367R, G370F
B33: G392H: HAB1 mutant (protein, UniProt Q9CAJ0 23-511, looked up, variant G392H)
Protein phosphatase 2C 16: B1 Protein phosphatase 2C 16 with Q367R, G370H
B34: G392I: HAB1 mutant (protein, UniProt Q9CAJ0 23-511, looked up, variant G392I)
Protein phosphatase 2C 16: B1 Protein phosphatase 2C 16 with Q367R, G370I
B35: G392K: HAB1 mutant (protein, UniProt Q9CAJ0 23-511, looked up, variant G392K)
Protein phosphatase 2C 16: B1 Protein phosphatase 2C 16 with Q367R, G370K
B36: V393Q: HAB1 mutant (protein, listed as Arabidopsis thaliana)
chain: MEEMTPAVAMTLSLAANTMCESSPVEITQLKNVTDAADLLSDSENQSFCNGGTECTMEDVSELEEVGEQDLLKTLSDTRSGSSNVFDEDDVLSVVEDNSAVISEGLLVVDAGSELSLSNTAMEIDNGRVLATAIIVGESSIEQVPTAEVLIAGVNQDTNTSEVVIRLPDENSNHLVKGRSVYELDCIPLWGTVSIQGNRSEMEDAFAVSPHFLKLPIKMLMGDHEGMSPSLTHLTGHFFGVYDGHGGHKVADYCRDRLHFALAEEIERIKDELCKRNTGEGRQVQWDKVFTSCFLTVDGEIEGKIGRAVVGSSDKVLEAVASETVGSTAVVALVCSSHIVVSNCGDSRAVLFRGKEAMPLSVDHKPDREDEYARIENAGGKVIQWQGARVFGQLAMSRSIGDRYLKPYVIPEPEVTFMPRSREDECLILASDGLWDVMNNQEVCEIARRRILMWHKKNGAPPLAERGKGIDPACQAAADYLSMLALQKGSKDNISIIVIDLKAQRKFKTRT
B37: V393R: HAB1 mutant V393R, denoted HAB1^! (protein, listed as Arabidopsis thaliana)
chain: B36 chain with Q393R
B38: V393K: HAB1 mutant (protein, listed as Arabidopsis thaliana)
chain: B36 chain with Q393K

Target: T1, PYR1
Experiment: Yeast two hybrid of pACT-HAB1 site saturation mutants with pBD-PYR1 on 10 μM ABA, β-galactosidase staining
Type: cell-based
Parameters: key: x: Mutations in HAB1 that disrupt HAB1 interaction with PYR1
Settings: S. cerevisiae Y190, 10 μM ABA; dead = lack of detectable staining in comparison to wild type control
Summary of the method: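 Read-out is β-galactosidase staining of chloroform-lysed Y190 colonies grown 2 days at 30 °C on SD (-Leu,-Trp) plus 10 μM ABA. Each pACT-HAB1 single-substitution mutant (N-terminally truncated by three residues) was paired with pBD-PYR1; absence of detectable staining relative to wild type scored as dead.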

Row | Molecule | Mutations in HAB1 that disrupt HAB1 interaction with PYR1
1 | B1 | x
2 | B2 | x
3 | B3 | x
4 | B4 | x
5 | B5 | x
6 | B6 | x
7 | B7 | x
8 | B8 | x
9 | B9 | x
10 | B10 | x
11 | B11 | x
12 | B12 | x
13 | B13 | x
14 | B14 | x
15 | B15 | x
16 | B16 | x
17 | B17 | x
18 | B18 | x
19 | B19 | x

Row | Molecule | Mutations in HAB1 that disrupt HAB1 interaction with PYR1
20 | B20 | x
21 | B21 | x
22 | B22 | x
23 | B23 | x
24 | B24 | x
25 | B25 | x
26 | B26 | x
27 | B27 | x
28 | B28 | x
29 | B29 | x
30 | B30 | x
31 | B31 | x
32 | B32 | x
33 | B33 | x
34 | B34 | x
35 | B35 | x
36 | B36 | x
37 | B37 | x
38 | B38 | x
